Laboratory results: patent US20090214547A1
Where “and” joins values, the source holds several entries; their conditions need not be identical. Equal values may be shown once.

Columns and labels:
PsaA Peptide 9144 [1] = assay: peptide ELISA, plate 1
Peptide GNT-08 [2] = assay: peptide ELISA, plate 1
PLY Peptide 10146 [3] = assay: peptide ELISA, plate 1
Peptide GNT-02 [4] = assay: peptide ELISA, plate 1
Peptide GNT-13 [5] = assay: peptide ELISA, plate 1
Peptide GNT-01 [6] = assay: peptide ELISA, plate 1
Peptide GNT-14 [7] = assay: peptide ELISA, plate 1
PsaA Peptide 9144 [8] = assay: peptide ELISA, plate 2 overview
Peptide GNT-08 [9] = assay: peptide ELISA, plate 2 overview
Peptide GNT-06 [10] = assay: peptide ELISA, plate 2 overview
PLY Peptide 10146 [11] = assay: peptide ELISA, plate 2 overview
Peptide GNT-02 [12] = assay: peptide ELISA, plate 2 overview
Peptide GNT-13 [13] = assay: peptide ELISA, plate 2 overview
Peptide GNT-062 [14] = assay: peptide ELISA, plate 2 overview
Peptide GNT-09 [15] = assay: peptide ELISA, plate 2 overview
Peptide GNT-061 [16] = assay: peptide ELISA, plate 2 overview
Peptide GNT-01 [17] = assay: peptide ELISA, plate 2 overview
Peptide GNT-04 [18] = assay: peptide ELISA, plate 2 overview
Peptide GNT-10 [19] = assay: peptide ELISA, plate 2 overview
Peptide GNT-05 [20] = assay: peptide ELISA, plate 2 overview
Peptide GNT-07 [21] = assay: peptide ELISA, plate 2 overview
Peptide GNT-14 [22] = assay: peptide ELISA, plate 2 overview
PsaA Peptide 9144 [23] = assay: peptide ELISA, plate 2
Peptide GNT-08 [24] = assay: peptide ELISA, plate 2
Peptide GNT-06 [25] = assay: peptide ELISA, plate 2
PLY Peptide 10146 [26] = assay: peptide ELISA, plate 2
Peptide GNT-13 [27] = assay: peptide ELISA, plate 2
Peptide GNT-062 [28] = assay: peptide ELISA, plate 2
Peptide GNT-09 [29] = assay: peptide ELISA, plate 2
Peptide GNT-061 [30] = assay: peptide ELISA, plate 2
Peptide GNT-01 [31] = assay: peptide ELISA, plate 2
Peptide GNT-04 [32] = assay: peptide ELISA, plate 2
Peptide GNT-10 [33] = assay: peptide ELISA, plate 2
Peptide GNT-05 [34] = assay: peptide ELISA, plate 2
Peptide GNT-07 [35] = assay: peptide ELISA, plate 2
Peptide GNT-14 [36] = assay: peptide ELISA, plate 2
PsaA Peptide 9144 [37] = assay: peptide ELISA, plate 1 overview
Peptide GNT-08 [38] = assay: peptide ELISA, plate 1 overview
PLY Peptide 10146 [39] = assay: peptide ELISA, plate 1 overview
Peptide GNT-02 [40] = assay: peptide ELISA, plate 1 overview
Peptide GNT-13 [41] = assay: peptide ELISA, plate 1 overview
Peptide GNT-01 [42] = assay: peptide ELISA, plate 1 overview
Peptide GNT-07 [43] = assay: peptide ELISA, plate 1 overview
Peptide GNT-14 [44] = assay: peptide ELISA, plate 1 overview

B1: 22-1C11.1 (antibody, V domains shown)
VH: VKLQESGGGVVQPGRSLRLSCAASGFTFSNYGMHWVRQAPGKGLEWVAVIWYDGSNKYYADFVKGRFTISRDNSKNTLYLQMNSLRAEDTAVYYCARRGNYYGLGSFYYYGMDVWGQGTTVTVSS
VL: DIQMTQSPATLSLSPGERATLSCRASQSVSSYLAWYQQKPGQAPRLLIYDASNRATGIPARFSGSGSGTDFTLTISSLEPEDFAVYYCQQCSNWHPTFGQGTKLEIKR
Elisa reading (PsaA Peptide 9144 [1]): 0.16 and 0.1 and 0.19
Elisa reading (Peptide GNT-08 [2]): 0.71 and 0.91 and 1.52
Elisa reading (PLY Peptide 10146 [3]): 1.09 and 1.71 and 2.24
Elisa reading (Peptide GNT-02 [4]): 2.05 and 2.51 and 3
Elisa reading (Peptide GNT-13 [5]): 0.11 and 0.12 and 0.25
Elisa reading (Peptide GNT-01 [6]): 0.72 and 1.16 and 1.7
Elisa reading (Peptide GNT-14 [7]): 0.1 and 0.22
Elisa reading (PsaA Peptide 9144 [8]): 0.54
Elisa reading (Peptide GNT-08 [9]): 0.73
Elisa reading (Peptide GNT-06 [10]): 0.56
Elisa reading (PLY Peptide 10146 [11]): 1.58
Elisa reading (Peptide GNT-02 [12]): > 3
Elisa reading (Peptide GNT-13 [13]): 0.26
Elisa reading (Peptide GNT-062 [14]): 0.84
Elisa reading (Peptide GNT-09 [15]): 0.48
Elisa reading (Peptide GNT-061 [16]): 0.61
Elisa reading (Peptide GNT-01 [17]): 1.27
Elisa reading (Peptide GNT-04 [18]): 0.75
Elisa reading (Peptide GNT-10 [19]): 0.4
Elisa reading (Peptide GNT-05 [20]): 0.82
Elisa reading (Peptide GNT-07 [21]): 0.68
Elisa reading (Peptide GNT-14 [22]): 0.26
Elisa reading (PsaA Peptide 9144 [23]): 0.539
Elisa reading (Peptide GNT-08 [24]): 0.73
Elisa reading (Peptide GNT-06 [25]): 0.56
Elisa reading (PLY Peptide 10146 [26]): 1.58
Elisa reading (Peptide GNT-13 [27]): 0.264
Elisa reading (Peptide GNT-062 [28]): 0.844
Elisa reading (Peptide GNT-09 [29]): 0.475
Elisa reading (Peptide GNT-061 [30]): 0.61
Elisa reading (Peptide GNT-01 [31]): 1.27
Elisa reading (Peptide GNT-04 [32]): 0.748
Elisa reading (Peptide GNT-10 [33]): 0.403
Elisa reading (Peptide GNT-05 [34]): 0.816
Elisa reading (Peptide GNT-07 [35]): 0.681
Elisa reading (Peptide GNT-14 [36]): 0.257
Elisa reading (PsaA Peptide 9144 [37]): 0.16
Elisa reading (Peptide GNT-08 [38]): 0.71
Elisa reading (PLY Peptide 10146 [39]): 1.09
Elisa reading (Peptide GNT-02 [40]): 2.05
Elisa reading (Peptide GNT-13 [41]): 0.11
Elisa reading (Peptide GNT-01 [42]): 0.72
Elisa reading (Peptide GNT-07 [43]): 0.24
Elisa reading (Peptide GNT-14 [44]): 0.1
